{"source": "patent US20240252631A1", "about": "“METHODS OF USING ACTIVIN RECEPTOR TYPE II SIGNALING INHIBITORS” (Keros Therapeutics, Inc., priority 2021, published 2024)", "key": {"C57BI/6 mice [1]": {"system": "C57BI/6 mice", "assay": "ActRIIA/B-mFc in combination with ruxolitinib (ruxolitinib-induced anemia)", "assay_type": "in vivo, mouse", "description": "To examine whether treatment with ActRIIA/B-mFc can overcome ruxolitinib-induced anemia, a pharmacological assessment was conducted in mice. Ten- to twelve-week-old, female, C57BI/6 mice were dosed orally with either vehicle (n=10) or ruxolitinib at 90 mg/kg (n=20) or 120 mg/kg (n=20) twice daily. After 37 days of ruxolitinib therapy, blood was sampled via cheek bleed for hematological assessment. On Day 41, mice from each ruxolitinib dose were divided into two groups that received either TBS (vehicle) (n=10) or ActRIIA/B-mFc (7.5 mg/kg, n=10 per group), IP twice weekly for 14 days concomitant to continued ruxolitinib dosing. Hematological parameters were assessed in whole blood with the use of a Heska Element HT5 veterinary hematology analyzer."}, "ActRIIB": {"biological_target": "ActRIIB (Homo sapiens, UniProt Q13705)", "sequence (Q13705 19-512, species assumed)": "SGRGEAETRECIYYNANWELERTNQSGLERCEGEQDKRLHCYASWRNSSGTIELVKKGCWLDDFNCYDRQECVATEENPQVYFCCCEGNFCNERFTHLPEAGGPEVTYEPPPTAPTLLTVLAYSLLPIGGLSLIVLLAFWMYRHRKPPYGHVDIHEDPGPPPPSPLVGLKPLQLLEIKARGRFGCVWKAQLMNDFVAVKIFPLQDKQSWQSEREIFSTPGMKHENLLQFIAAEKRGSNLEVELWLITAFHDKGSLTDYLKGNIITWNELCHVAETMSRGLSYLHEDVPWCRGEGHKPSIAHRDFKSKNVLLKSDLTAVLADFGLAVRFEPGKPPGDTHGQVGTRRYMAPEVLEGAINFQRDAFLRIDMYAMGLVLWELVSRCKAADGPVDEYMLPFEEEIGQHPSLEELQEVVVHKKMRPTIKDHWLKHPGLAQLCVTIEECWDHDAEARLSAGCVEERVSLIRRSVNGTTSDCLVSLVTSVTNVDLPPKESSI", "details": "Townson et al., J. Biol. Chem. 287:27313, 2012; cited from earlier work"}, "[2]": {"assay": "Activity in vivo of ActRIIA variant substituted at X17", "details": "substitution of alanine (A) for lysine (K) at X17"}, "[3]": {"system": "Bone marrow cells from 11-week-old C57BI/6 mice", "assay": "Ex-vivo treatment of bone marrow cells, ploidy of megakaryocyte precursors by flow cytometry", "assay_type": "cell-based, mouse", "details": "six days", "description": "Bone marrow cells from 11-week-old C57BI/6 mice were isolated and treated with Activin A ([…]), ActRIIA/B-mFc ([…]), or a combination of both for six days. Cells were harvested after six days and analyzed using flow cytometry (N=2)."}, "[4]": {"system": "TPO^high model of myelofibrosis", "assay": "TPO^high model of myelofibrosis: platelets, red blood cell parameters, spleen weight, immune cells", "assay_type": "in vivo, mouse", "description": "The TPO^high model of myelofibrosis induces a myelofibrotic-like pathology through elevated exposure to thrombopoietin, the native endocrine inducer of megakaryocyte progenitor proliferation and development. Seven-week-old C57BI/6 albino mice (B6(Cg)-Tyr, Jackson Laboratory) were teil-vein injected with 0.75 mg/kg thrombopoietin (TPO) expressing plasmid cloned into pLEV113 plasmid (Lake Pharma). The injection was done in hydrodynamic approach in which 100 ml/kg volume is injected in a short period of time (6-10 seconds). On day 3 after TPO injection mice were divided into 2 groups receiving either vehicle (TBS) or ActRIIA/B-mFc (7.5 mg/kg), twice weekly. Mice were sacrificed on day 14 after TPO injection. Hematological parameters were measured using the Heska Element HT5 veterinary hematology analyzer."}, "[5]": {"system": "mouse model of immune thrombocytopenia", "assay": "Platelet recovery following anti-GP1bα platelet depletion", "assay_type": "in vivo", "description": "Twelve-week-old mice were treated with either anti-GP1bα (0.08 mg/kg, Efferet) or IgG control. At day 4 after treatment, the anti-GP1bα treated group was further divided to receive either vehicle or ActRIIA/B-mFc (7.5 mg/kg) treatment. Platelets were measured at indicated time points post anti-GP1bα dosing. At day 10 post-treatment, mice were euthanized and bone marrow cells were harvested. Bone marrow cells were fixed in ice-cold 100% ethanol and stained with Propidium lodide (PI) (200 μg/mL, Sigma-Aldrich) and anti-CD41 (FITC conjugated, Emfret Analytics) antibody in parallel with RNase treatment (2 mg/ml, Invitrogen). Samples were analyzed by flow cytometer (Cytoflex, Beckman coulter) and % CD41+ nucleated cells (PI+ cells) was measured."}, "C57BI/6 mice [6]": {"system": "C57BI/6 mice", "assay": "Effect of a single dose of ActRIIA/B-mFc on platelet numbers at day 37, 51 and 85", "assay_type": "in vivo, mouse", "details": "single dose 10 mg/kg subcutaneous", "description": "Eleven-week-old C57BI/6 mice were given a single dose of either TBS (vehicle) or ActRIIA/B-mFc (10 mg/kg) via subcutaneous administration. Separate cohorts of mice from both dosing groups were sampled for whole blood at study day 37, 51 and 85, and platelet counts were determined using a veterinary hematology analyzer (Heska Element HT5)."}, "C57BI/6 mice [7]": {"system": "C57BI/6 mice", "assay": "Effect of ActRIIA/B-mFc on megakaryocyte maturation (CD41+ cells and ploidy by flow cytometry)", "assay_type": "in vivo, mouse", "details": "10 mg/kg, bone marrow", "description": "Eleven-week-old C57BI/6 mice were dosed with either TBS (Vehicle) or ActRIIA/B-mFc (10 mg/kg) via IP administration. Twelve and twenty-four hour later mice were euthanized and bone marrow extracted from the femurs. Bone marrow cells were fixed in ethanol following by a staining with Propidium lodide (PI) and anti CD41 (FITC, Efferet) antibody in parallel with RNAse treatment. Samples were analyzed by flow cytometer (Cytoflex, Beckman coulter). Ploidy of CD41+ nucleated cells (PI+ cells) was analyzed. Graphs represent % cells at each ploidy stage. For 12HR N=3 and for 24HR N=2. For CD41+ cells at 12HR time point a t-test was performed for statistical analysis. Data are presented as mean±SEM."}, "C57BI/6 male mice": {"system": "C57BI/6 male mice", "assay": "Effect of an anti-activin A antibody on platelet numbers 24 hours post-dose", "assay_type": "in vivo, mouse", "details": "intraperitoneal, anti-activin A 5 mg/kg, ActRIIA/B-mFc 10 mg/kg, vs TBS", "description": "Ten-week-old C57BI/6 male mice were dosed with either TBS (vehicle), anti-activin A antibody (described in WO2008031061A2, 5 mg/kg), or ActRIIA/B-mFc (10 mg/kg) via intraperitoneal administration. Twenty-four hours post-dose whole blood was sampled, and platelet counts were determined using a veterinary hematology analyzer (Hematrue)."}, "C57BI/6 mice [8]": {"system": "C57BI/6 mice", "assay": "Effect of ActRIIA/B-mFc on platelets and bone marrow megakaryocyte progenitors 12 hours post-dose", "assay_type": "in vivo, mouse", "details": "single dose 10 mg/kg IP", "description": "Eleven-week-old C57BI/6 mice were dosed with either TBS (Vehicle) or ActRIIA/B-mFc (10 mg/kg) via intraperitoneal (IP) administration. Twelve hours post-dose whole blood was sampled, and platelet counts were determined using a veterinary hematology analyzer (Heska Element HT5). Mice were then euthanized, and bone marrow extracted from the femurs. Bone marrow cells were stained with antibodies against Lineage (Perc-Cy5), sca1 (BV525), cKit (Alexa750), CD41 (APC) and CD150 (Pcy7) and analyzed on flow cytometer (Cytoflex, Beckman coulter). Megakaryocyte progenitors were gated on Lin−; sca1−; ckit+; CD150+; CD41+ cells."}, "[9]": {"details": "ruxolitinib alone, 90 or 120 mg/kg orally twice daily, after 37 days"}, "[10]": {"details": "7.5 mg/kg twice weekly from day 3, day 14 after TPO injection"}, "[11]": {"details": "7.5 mg/kg IP twice weekly for 14 days, continued ruxolitinib"}}, "note": "“Also recorded” adds a separate entry of the source.", "data": [{"molecule": "N#CC[C@H](C1CCCC1)n1cc(-c2ncnc3[nH]ccc23)cn1", "note": "[ruxolitinib, reference compound]", "values": [{"measurement": "RBC volume", "setting": "C57BI/6 mice [1]; [9]", "value": "reduced"}, {"measurement": "hematocrit", "setting": "C57BI/6 mice [1]; [9]", "value": "reduced"}, {"measurement": "hemoglobin", "setting": "C57BI/6 mice [1]; [9]", "value": "reduced"}]}, {"molecule": "BMP9: bone morphogenetic protein, ligand in the TGF-β superfamily", "values": [{"measurement": "binding affinity for ActRIIB relative to ActRIIA", "setting": "ActRIIB", "value": "about 300 fold"}]}, {"molecule": "SEQ ID NO: 85: ActRIIA variant with substitution of alanine (A) for lysine (K) at X17 (protein) GAILGRSETQECLFYNANWELERTNQTGVERCEGEKDKRLHCYATWRNISGSIEIVAKGCWLDDFNCYDRTDCVETEENPQVYFCCCEGNMCNEKFSYFPEMEVTQPTS", "values": [{"measurement": "activity in vivo", "setting": "[2]", "value": "reduced activity"}]}, {"molecule": "ActRIIA/B-mFc: SEQ ID NO: 69 fused to a mouse Fc domain by way of a linker (protein, left off: a dimerising Fc or GST) GAILGRSETQECLFYNANWELERTNQTGVERCEGEKDKRLHCYATWRNISGSIEIVKKGCWLDDFNCYDRTDCVETEENPQVYFCCCEGNMCNEKFSYFPEMEVTQPTS", "values": [{"measurement": "activin-mediated changes in megakaryocyte precursors (ploidy)", "setting": "[3]; ActRIIA/B-mFc (10 mg/kg) with Activin A (5 mg/kg)", "value": "reversed"}, {"measurement": "RBC metrics (red blood cells, hemoglobin, hematocrit, mean corpuscular hemoglobin concentration)", "setting": "[4]; [10]", "value": "significant improvement"}, {"measurement": "TPO-mediated increase in lymphocytes", "setting": "[4]; [10]", "value": "reduced"}, {"measurement": "TPO-mediated increase in white blood cells", "setting": "[4]; [10]", "value": "reduced"}, {"measurement": "development of anemia", "setting": "[4]; [10]", "value": "reduce"}, {"measurement": "expansion of platelets", "setting": "[4]; [10]", "value": "significant attenuation; also recorded: attenuated"}, {"measurement": "splenomegaly", "setting": "[4]; [10]", "value": "significant reduction"}, {"measurement": "splenic extra medullary hematopoiesis", "setting": "[4]; inferred from splenomegaly, 7.5 mg/kg twice weekly, day 14", "value": "reduced"}, {"measurement": "recovery of platelet numbers following platelet depletion", "setting": "[5]; 7.5 mg/kg at day 4 after anti-GP1bα (0.08 mg/kg), compared to vehicle treated mice", "value": "accelerated recovery"}, {"measurement": "increase in the number of CD41+ megakaryocyte progenitors in the bone marrow compared to the vehicle-treated group", "setting": "[5]; 7.5 mg/kg, day 10 after platelet depletion", "value": 25, "unit": "%"}, {"measurement": "4N ploidy level", "setting": "[5]; 7.5 mg/kg, day 10 after platelet depletion, vs vehicle", "value": "higher"}, {"measurement": "duration of increased circulating platelets after a single dose", "setting": "C57BI/6 mice [6]", "value": "at least 85 days"}, {"measurement": "circulating platelets", "setting": "C57BI/6 mice [6]; day 37, 51 and 85", "value": "increased"}, {"measurement": "ruxolitinib-associated reduction in RBC volume", "setting": "C57BI/6 mice [1]; [11]", "value": "abrogated"}, {"measurement": "ruxolitinib-associated reduction in hematocrit", "setting": "C57BI/6 mice [1]; [11]", "value": "abrogated"}, {"measurement": "ruxolitinib-associated reduction in hemoglobin", "setting": "C57BI/6 mice [1]; [11]", "value": "abrogated"}, {"measurement": "body weight in mice treated with ruxolitinib", "setting": "C57BI/6 mice [1]; ActRIIA/B-mFc 7.5 mg/kg IP twice weekly for 14 days with ruxolitinib 90 or 120 mg/kg twice daily", "value": "increased"}, {"measurement": "number of CD41+ megakaryocyte progenitors", "setting": "C57BI/6 mice [7]; 12 hours after treatment", "value": "increase"}, {"measurement": "number of polyploid megakaryocytes", "setting": "C57BI/6 mice [7]; by 24 hours", "value": "increase"}, {"measurement": "platelets in wild-type mice", "setting": "C57BI/6 male mice", "value": "increased"}, {"measurement": "bone marrow megakaryocyte progenitors", "setting": "C57BI/6 mice [8]; Lin-, sca1-, ckit+, CD150+, CD41+ cells", "value": "increased"}, {"measurement": "circulating platelet numbers", "setting": "C57BI/6 mice [8]; vs TBS vehicle", "value": "increased"}]}, {"molecule": "activin A: ActRII ligand of the TGF-β superfamily used to treat bone marrow cells ex vivo (protein, UniProt P08476 311-426, looked up) Inhibin beta A chain: GLECDGKVNICCKKQFFVSFKDIGWNDWIIAPSGYHANYCEGECPSHIAGTSGSSLSFHSTVINHYRMRGHSPFANLKSCCVPTKLRPMSMLYYDDGQNIIKKDIQNMIVEECGCS", "values": [{"measurement": "2N ploidy levels", "setting": "[3]; Activin A (5 mg/kg)", "value": "increased"}, {"measurement": "extent of polyploidy (higher ploidy levels)", "setting": "[3]; Activin A (5 mg/kg)", "value": "reduced"}]}]}
